Data reported in patent EP4772613A1 (GI Cell, Inc., dated 2026).

T1: IL-2Rβ and common γ chain on HEK-Blue CD122/132 cells (InvivoGen hkb-il2bg) (UniProt P14784 27-551; P31785 23-369, limits assumed)
T1 sequence (looked up) 1: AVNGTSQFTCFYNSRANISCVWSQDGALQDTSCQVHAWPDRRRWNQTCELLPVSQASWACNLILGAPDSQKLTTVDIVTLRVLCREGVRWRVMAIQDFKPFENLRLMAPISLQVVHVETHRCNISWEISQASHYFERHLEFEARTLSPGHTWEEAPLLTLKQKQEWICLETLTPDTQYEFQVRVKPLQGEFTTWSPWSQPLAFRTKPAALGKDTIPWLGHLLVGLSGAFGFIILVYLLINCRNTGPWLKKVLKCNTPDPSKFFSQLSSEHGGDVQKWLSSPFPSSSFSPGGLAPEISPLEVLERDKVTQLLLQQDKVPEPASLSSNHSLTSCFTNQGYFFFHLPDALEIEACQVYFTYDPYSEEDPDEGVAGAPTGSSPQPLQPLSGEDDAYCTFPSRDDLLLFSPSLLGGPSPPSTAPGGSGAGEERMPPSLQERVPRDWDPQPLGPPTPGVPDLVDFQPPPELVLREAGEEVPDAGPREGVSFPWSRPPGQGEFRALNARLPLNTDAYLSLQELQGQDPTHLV
T1 sequence (looked up) 2: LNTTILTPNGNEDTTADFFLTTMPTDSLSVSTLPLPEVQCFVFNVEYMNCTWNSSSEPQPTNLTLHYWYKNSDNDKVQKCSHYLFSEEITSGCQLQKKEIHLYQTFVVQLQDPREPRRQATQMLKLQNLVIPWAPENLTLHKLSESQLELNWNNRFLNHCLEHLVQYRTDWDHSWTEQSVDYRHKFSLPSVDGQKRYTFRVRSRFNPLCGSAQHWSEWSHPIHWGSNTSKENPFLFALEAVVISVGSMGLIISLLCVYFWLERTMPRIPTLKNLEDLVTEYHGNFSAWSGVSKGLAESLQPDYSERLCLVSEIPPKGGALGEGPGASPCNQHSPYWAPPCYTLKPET

T2: IL-2Rβ-his (Acro CD2-H5221) (UniProt P14784 27-239)
T2 construct: also called CD122; not shown: his tag
T2 sequence (looked up): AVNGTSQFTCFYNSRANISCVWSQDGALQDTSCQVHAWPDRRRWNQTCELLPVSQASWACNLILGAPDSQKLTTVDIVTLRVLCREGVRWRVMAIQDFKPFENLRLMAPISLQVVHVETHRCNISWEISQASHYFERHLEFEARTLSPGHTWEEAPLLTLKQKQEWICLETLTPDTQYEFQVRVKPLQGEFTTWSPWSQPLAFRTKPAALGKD


Legend:
[1] = target: T1, IL-2Rβ and common γ chain on HEK-Blue …; experiment: cell-based or functional assay
[2] = target: T2, IL-2Rβ-his (Acro CD2-H5221); experiment: Octet BLI; IL-2Rβ-his on Ni-NTA sensor, analyte 2,000 to 31.25 nM

| Binder | EC50 (ng/ml), STAT5 activity, HEK-Blue CD122/132 reporter cells [1] [ng/mL] | Kd [2] [nM] | koff [2] [s⁻¹] | kon [2] [M⁻¹ s⁻¹] |
| --- | --- | --- | --- | --- |
| GIC-982C1 (IL-2/IL-15) (Fc fusion) GSAESKYGPPCPPCPAPEAAGGPSVFLFPPKPKDQLMISRTPEVTCVVVDVSQEDPEVQFNWYVDGVEVHNAKTKPREEQFNSTYRVVSVLTVLHQDWLNGKEYKCKVSNKGLPSSIEKTISKAKGQPREPQVYTLPPSQEEMTKNQVSLTCLVKGFYPSDIAVEWESNGQPENNYKTTPPVLDSDGSFFLYSRLTVDKSRWQEGNVFSCSVLHEALHNHYTQKSLSLSLGGGGGSGGGGSITCPPPMSVEHADIWVKSYSLYSRERYICNSGFKRKAGTSSLTECVLNKATNVAHWTTPSLKCIRGGGGSGGGGSGGGGSGGGGSAPTSSSTKKTQLQLEHLLLDLQMILNGSMHIDATLYTESDVHPSCKVTAMKCFLLELQVISLESKNFHLRPRDLISNINVIVLELKGSNGNVTESGCKECEELEEKNIVEFLNRWITFCQSIISTLT | 1730 | 387 | 0.000335 | 866 |
| GIC-982C6 (IL-2/IL-15v5) (V80L) (Fc fusion, the entry already holds the change) GSAESKYGPPCPPCPAPEAAGGPSVFLFPPKPKDQLMISRTPEVTCVVVDVSQEDPEVQFNWYVDGVEVHNAKTKPREEQFNSTYRVVSVLTVLHQDWLNGKEYKCKVSNKGLPSSIEKTISKAKGQPREPQVYTLPPSQEEMTKNQVSLTCLVKGFYPSDIAVEWESNGQPENNYKTTPPVLDSDGSFFLYSRLTVDKSRWQEGNVFSCSVLHEALHNHYTQKSLSLSLGGGGGSGGGGSITCPPPMSVEHADIWVKSYSLYSRERYICNSGFKRKAGTSSLTECVLNKATNVAHWTTPSLKCIRGGGGSGGGGSGGGGSGGGGSAPTSSSTKKTQLQLEHLLLDLQMILNGSMHIDATLYTESDVHPSCKVTAMKCFLLELQVISLESKNFHLRPRDLISNINLIVLELKGSNGNVTESGCKECEELEEKNIVEFLNRWITFCQSIISTLT | 723 | 386 | 0.000435 | 1130 |
| GIC-982C14 (IL-2/IL-15v7) (S76N) (Fc fusion) GSAESKYGPPCPPCPAPEAAGGPSVFLFPPKPKDQLMISRTPEVTCVVVDVSQEDPEVQFNWYVDGVEVHNAKTKPREEQFNSTYRVVSVLTVLHQDWLNGKEYKCKVSNKGLPSSIEKTISKAKGQPREPQVYTLPPSQEEMTKNQVSLTCLVKGFYPSDIAVEWESNGQPENNYKTTPPVLDSDGSFFLYSRLTVDKSRWQEGNVFSCSVLHEALHNHYTQKSLSLSLGGGGGSGGGGSITCPPPMSVEHADIWVKSYSLYSRERYICNSGFKRKAGTSSLTECVLNKATNVAHWTTPSLKCIRGGGGSGGGGSGGGGSGGGGSAPTSSSTKKTQLQLEHLLLDLQMILNGSMHIDATLYTESDVHPSCKVTAMKCFLLELQVISLESKNFHLRPRDLINNINVIVLELKGSNGNVTESGCKECEELEEKNIVEFLNRWITFCQSIISTLT | 997 | 327 | 0.000223 | 686 |
| GIC-982C5 (IL-2/IL-15v4) (N77D) (Fc fusion, the entry already holds the change) GSAESKYGPPCPPCPAPEAAGGPSVFLFPPKPKDQLMISRTPEVTCVVVDVSQEDPEVQFNWYVDGVEVHNAKTKPREEQFNSTYRVVSVLTVLHQDWLNGKEYKCKVSNKGLPSSIEKTISKAKGQPREPQVYTLPPSQEEMTKNQVSLTCLVKGFYPSDIAVEWESNGQPENNYKTTPPVLDSDGSFFLYSRLTVDKSRWQEGNVFSCSVLHEALHNHYTQKSLSLSLGGGGGSGGGGSITCPPPMSVEHADIWVKSYSLYSRERYICNSGFKRKAGTSSLTECVLNKATNVAHWTTPSLKCIRGGGGSGGGGSGGGGSGGGGSAPTSSSTKKTQLQLEHLLLDLQMILNGSMHIDATLYTESDVHPSCKVTAMKCFLLELQVISLESKNFHLRPRDLISDINVIVLELKGSNGNVTESGCKECEELEEKNIVEFLNRWITFCQSIISTLT |  | 1290 | 0.000313 | 242 |
| GIC-982C3 (IL-2/IL-15v2) (L74F) (Fc fusion, the entry already holds the change) GSAESKYGPPCPPCPAPEAAGGPSVFLFPPKPKDQLMISRTPEVTCVVVDVSQEDPEVQFNWYVDGVEVHNAKTKPREEQFNSTYRVVSVLTVLHQDWLNGKEYKCKVSNKGLPSSIEKTISKAKGQPREPQVYTLPPSQEEMTKNQVSLTCLVKGFYPSDIAVEWESNGQPENNYKTTPPVLDSDGSFFLYSRLTVDKSRWQEGNVFSCSVLHEALHNHYTQKSLSLSLGGGGGSGGGGSITCPPPMSVEHADIWVKSYSLYSRERYICNSGFKRKAGTSSLTECVLNKATNVAHWTTPSLKCIRGGGGSGGGGSGGGGSGGGGSAPTSSSTKKTQLQLEHLLLDLQMILNGSMHIDATLYTESDVHPSCKVTAMKCFLLELQVISLESKNFHLRPRDFISNINVIVLELKGSNGNVTESGCKECEELEEKNIVEFLNRWITFCQSIISTLT | 9740 | 302 | 0.000481 | 1590 |

The next binders have a lower Kd [2] than those just listed; values first:

| EC50 (ng/ml), STAT5 activity, HEK-Blue CD122/132 reporter cells [1] [ng/mL] | Kd [2] [nM] | koff [2] [s⁻¹] | kon [2] [M⁻¹ s⁻¹] | Binder |
| --- | --- | --- | --- | --- |
|  | 265 | 9.11e-05 | 344 | GIC-982C12 (IL-2/IL-15v11) (D73E, L74F, S76D, N77D, V80L) (Fc fusion, the entry already holds the changes) GSAESKYGPPCPPCPAPEAAGGPSVFLFPPKPKDQLMISRTPEVTCVVVDVSQEDPEVQFNWYVDGVEVHNAKTKPREEQFNSTYRVVSVLTVLHQDWLNGKEYKCKVSNKGLPSSIEKTISKAKGQPREPQVYTLPPSQEEMTKNQVSLTCLVKGFYPSDIAVEWESNGQPENNYKTTPPVLDSDGSFFLYSRLTVDKSRWQEGNVFSCSVLHEALHNHYTQKSLSLSLGGGGGSGGGGSITCPPPMSVEHADIWVKSYSLYSRERYICNSGFKRKAGTSSLTECVLNKATNVAHWTTPSLKCIRGGGGSGGGGSGGGGSGGGGSAPTSSSTKKTQLQLEHLLLDLQMILNGSMHIDATLYTESDVHPSCKVTAMKCFLLELQVISLESKNFHLRPREFIDDINLIVLELKGSNGNVTESGCKECEELEEKNIVEFLNRWITFCQSIISTLT |
| 255 | 144 | 0.000338 | 2350 | GIC-982C4 (IL-2/IL-15v3) (S76D) (Fc fusion, the entry already holds the change) GSAESKYGPPCPPCPAPEAAGGPSVFLFPPKPKDQLMISRTPEVTCVVVDVSQEDPEVQFNWYVDGVEVHNAKTKPREEQFNSTYRVVSVLTVLHQDWLNGKEYKCKVSNKGLPSSIEKTISKAKGQPREPQVYTLPPSQEEMTKNQVSLTCLVKGFYPSDIAVEWESNGQPENNYKTTPPVLDSDGSFFLYSRLTVDKSRWQEGNVFSCSVLHEALHNHYTQKSLSLSLGGGGGSGGGGSITCPPPMSVEHADIWVKSYSLYSRERYICNSGFKRKAGTSSLTECVLNKATNVAHWTTPSLKCIRGGGGSGGGGSGGGGSGGGGSAPTSSSTKKTQLQLEHLLLDLQMILNGSMHIDATLYTESDVHPSCKVTAMKCFLLELQVISLESKNFHLRPRDLIDNINVIVLELKGSNGNVTESGCKECEELEEKNIVEFLNRWITFCQSIISTLT |
| 1080 | 215 | 0.000148 | 686 | GIC-982C2 (IL-2/IL-15v1) (D73E) (Fc fusion, the entry already holds the change) GSAESKYGPPCPPCPAPEAAGGPSVFLFPPKPKDQLMISRTPEVTCVVVDVSQEDPEVQFNWYVDGVEVHNAKTKPREEQFNSTYRVVSVLTVLHQDWLNGKEYKCKVSNKGLPSSIEKTISKAKGQPREPQVYTLPPSQEEMTKNQVSLTCLVKGFYPSDIAVEWESNGQPENNYKTTPPVLDSDGSFFLYSRLTVDKSRWQEGNVFSCSVLHEALHNHYTQKSLSLSLGGGGGSGGGGSITCPPPMSVEHADIWVKSYSLYSRERYICNSGFKRKAGTSSLTECVLNKATNVAHWTTPSLKCIRGGGGSGGGGSGGGGSGGGGSAPTSSSTKKTQLQLEHLLLDLQMILNGSMHIDATLYTESDVHPSCKVTAMKCFLLELQVISLESKNFHLRPRELISNINVIVLELKGSNGNVTESGCKECEELEEKNIVEFLNRWITFCQSIISTLT |
| 1390 | 105 | 0.000204 | 1930 | GIC-982C13 (IL-2/IL-15v6) (S76E) (Fc fusion) GSAESKYGPPCPPCPAPEAAGGPSVFLFPPKPKDQLMISRTPEVTCVVVDVSQEDPEVQFNWYVDGVEVHNAKTKPREEQFNSTYRVVSVLTVLHQDWLNGKEYKCKVSNKGLPSSIEKTISKAKGQPREPQVYTLPPSQEEMTKNQVSLTCLVKGFYPSDIAVEWESNGQPENNYKTTPPVLDSDGSFFLYSRLTVDKSRWQEGNVFSCSVLHEALHNHYTQKSLSLSLGGGGGSGGGGSITCPPPMSVEHADIWVKSYSLYSRERYICNSGFKRKAGTSSLTECVLNKATNVAHWTTPSLKCIRGGGGSGGGGSGGGGSGGGGSAPTSSSTKKTQLQLEHLLLDLQMILNGSMHIDATLYTESDVHPSCKVTAMKCFLLELQVISLESKNFHLRPRDLIENINVIVLELKGSNGNVTESGCKECEELEEKNIVEFLNRWITFCQSIISTLT |
